In PMC10999750:

Legend:
Assay in all cases: fluorescence polarisation; FITC-tagged peptide ('2 nm' [sic]) with importin two-fold serially diluted from 4.5 µM across 23 wells, 200 µl, GST Buffer A (50 mM Tris, 125 mM NaCl); three independent experiments
[1] = target: Synthetic FITC labelled AAV 09YN Cap-BR peptide (residues 117-167)
[2] = target: AAV 09YN Cap-BR-mMINOR+mMAJOR (FITC labelled peptide, residues 117-167, minor and major site mutant)
[3] = target: AAV 09YN Cap-BR-mMAJOR (FITC labelled peptide, residues 117-167, major site mutant)
[4] = target: AAV 09YN Cap-BR-mMINOR (FITC labelled peptide, residues 117-167, minor site mutant)

Substance | Kd [1] [nM] | Kd [2] [nM] | Kd [3] [nM] | Kd [4] [nM]
Human importin β (hImpβ) (from UniProt Q14974 1-876) (natural protein) | 1140 | – | – | –
Human importin α3 lacking the IBB domain (hImpα3DIBB) (domain or fragment) | 1 | 1.4 | 1.2 | 1.6
Human importin α1 lacking the IBB domain (hImpα1DIBB) (domain or fragment) | 483 | – | – | –
Human importin α5 lacking the IBB domain (hImp5DIBB) (domain or fragment) | 862 | – | – | –
Human importin α7 lacking the IBB domain (hImpα7DIBB) (domain or fragment) | 11 | – | – | –
